Data from article PMC4773402, “Comparison of the aggregation of homologous β2-microglobulin variants reveals protein solubility as a key determinant of amyloid formation” (Journal of Molecular Biology, 2016).

Target: the molecule itself
Test: AUC; sedimentation velocity, 25 °C, 48,000 rpm, 50 μM protein, pH 2.5 buffer with 0.3 M NaCl, absorbance at 280 nm, SEDFIT

B1: mouse β2-microglobulin (natural protein, UniProt P01887 21-119, looked up)
chain: IQKTPQIQVYSRHPPENGKPNILNCYVTQFHPPHIEIQMLKNGKKIPKVEMSDMSFSKDWSFYILAHTEFTPTETDTYACRVKHASMAEPKTVYWDRDM
notes: β2-microglobulin, mouse; In the AUC the protein was acid-unfolded at pH 2.5; also called mβ2m; source: expressed and prepared as described previously [47]; purified (anion exchange at pH 8.5, gel filtration), lyophilised
  binding result: binds
